Source: patent publication US20200123221A1 (IMMATICS BIOTECHNOLOGIES, published 2020)
One block for each binder: values may come before it.

Target: HLA-A*02-presented PRAME-004 (SEQ ID NO:97)
Test: cell-based or functional assay

EC50 of IFNγ release from CD8+ T-cells with the TCR, T2 target cells loaded with PRAME-004 from 10 µM to 10 pM: ~1 µM
B1: TCR R16P1E8 (TCR, V domains shown)
V domain 1: QKEVEQDPGPLSVPEGAIVSLNCTYSNSAFQYFMWYRQYSRKGPELLMYTYSSGNKEDGRFTAQVDKSSKYISLFIRDSQPSDSATYLCAMSEAAGNKLTFGGGTRVLVKP
V domain 2: EAGVAQSPRYKIIEKRQSVAFWCNPISGHATLYWYQQILGQGPKLLIQFQNNGVVDDSQLPKDRFSAERLKGVDSTLKIQPAKLEDSAVYLCASSYTNQGEAFFGQGTRLTVVE

EC50 of IFNγ release from CD8+ T-cells with the TCR, T2 target cells loaded with PRAME-004 from 10 µM to 10 pM: 1.83 nM
B2: TCR R17P1D7 (TCR, V domains shown)
V domain 1: QTVTQSQPEMSVQEAETVTLSCTYDTSESDYYLFWYKQPPSRQMILVIRQEAYKQQNATENRFSVNFQKAAKSFSLKISDSQLGDAAMYFCAYRWAQGGSEKLVFGKGTKLTVNP
V domain 2: DIYQTPRYLVIGTGKKITLECSQTMGHDKMYWYQQDPGMELHLIHYSYGVNSTEKGDLSSESTVSRIRTEHFPLTLESARPSHTSQYLCATELWSSGGTGELFFGEGSRLTVLE
